According to patent US5451522A, “Genes encoding and method of expressing an enzyme: phthalyl amidase” (priority 1994, dated 1995):

Tests used:
phthalyl amidase [1] = molecular target: T1, phthalyl amidase (Xanthobacter agilis, UniProt P0C2Y0); experiment: Chiral and additional substrate selectivity of phthalyl amidase; type: biochemical; details: Table 13; for Relative Activity: III = 100, 0.009 mg (0.6 units) enzyme, 2.5 μmol substrate, buffer A, 30° C.
T1 construct: 42-aa signal peptide removed
Method: Several additional substrates were tested in a total volume of 1 ml. […] Reactions were stopped by the addition of methanol, and phthalic acid formation was monitored by HPLC.

Xanthobacter agilis = experiment: Induction of phthalyl amidase in Xanthobacter agilis cultures; type: cell-based; details: for Total units/mg protein: cell-free lysate, chromogenic substrate II; for Cell weight: 48 hours growth in Bac MI medium
Method: Three compounds at different concentrations were added to aerated cultures of the organism growing at 30° C. in Bac MI medium. The compounds tested were phthalate (PAA), phthalyl glycine (PAG), and PMBL. Cells of Xanthobacter agilis were grown with aeration for 24 hours. This vegetative culture was used to inoculate Bac MI medium (50 ml) containing different concentrations of the compounds to be tested. After 48 hours growth under standard conditions, cells were harvested by centrifugation and wet weight of the cells was determined. Crude cell extracts were prepared by lysozyme treatment of the cells as in Example 1. Suspensions were briefly sonicated to break up the viscous suspension. A cell-free supernatant was obtained by centrifugation of the suspension at 14,000 rpm for 15 minutes.
Enzyme activity in cell-free lysates was determined by monitoring conversion of the chromogenic substrate 4-(2'-carboxy-N-benzoyl)amino-2-carboxy-nitrobenzene (II) to 2-nitro-5-amino benzoic acid and phthalic acid, a reaction catalyzed by phthalyl amidase as shown below: [drawing 4]
The assay reaction mixture (1 ml) consisted of 0.3 μmol of the chromogenic substrate (II) and 0.001-0.5 μg of enzyme preparation in 50 mM potassium phosphate buffer, pH 8.0 (buffer A). The enzymatic reaction was conducted at 30° C. for 10 minutes and the appearance of product was monitored at 380 nm (or 430 nm). The amount of substrate hydrolyzed was calculated from a standard curve of the amine product.

[2] = molecular target: phthalyl-L-Asp-L-Phe-OMe (compound XIV)
phthalyl amidase [3] = molecular target: T2, phthalyl amidase (Xanthobacter agilis, UniProt P0C2Y0); experiment: Optimum reaction temperature; type: biochemical; details: substrate III, 50 mM potassium phosphate, pH 8.2
T2 construct: 42-aa signal peptide removed
T2 sequence (P0C2Y0 whole entry, looked up): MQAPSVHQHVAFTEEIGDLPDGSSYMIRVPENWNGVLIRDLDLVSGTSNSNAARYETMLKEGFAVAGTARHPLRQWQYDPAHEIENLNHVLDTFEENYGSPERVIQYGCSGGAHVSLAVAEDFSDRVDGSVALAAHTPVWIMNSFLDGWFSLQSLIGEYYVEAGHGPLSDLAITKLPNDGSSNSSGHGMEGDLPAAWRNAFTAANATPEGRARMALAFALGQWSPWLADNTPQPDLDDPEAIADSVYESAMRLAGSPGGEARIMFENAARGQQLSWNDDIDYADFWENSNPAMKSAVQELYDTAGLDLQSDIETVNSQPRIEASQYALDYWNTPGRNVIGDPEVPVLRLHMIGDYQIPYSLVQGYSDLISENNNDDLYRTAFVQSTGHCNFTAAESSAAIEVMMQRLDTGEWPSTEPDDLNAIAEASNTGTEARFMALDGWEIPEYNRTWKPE
Method: Test reactions were carried out similar to Example 5 except that all incubations were performed in 50 mM potassium phosphate buffer at pH 8.2. Solutions of the substrate were pre-incubated for 5 minutes at temperatures between 2° and 60° C. The enzymatic reaction was initiated by the addition of phthalyl amidase and stopped by the addition of 1 ml methanol. Specific activity of the enzyme was determined by monitoring the hydrolysis of III by HPLC as in Example 5.

phthalyl amidase [4] = molecular target: T2, phthalyl amidase; experiment: Effect of pH on phthalyl amidase activity (substrate III, HPLC); type: biochemical; details: 50 mM potassium phosphate, 32° C.
Method: The effect of pH on the reaction rate of the analytical scale purified enzyme was determined using phthalamido carbacephem (III) as substrate. [drawing 5]
A typical reaction mixture consisted of 1 ml total volume and contained 0.1 mM III, 0.1 μM phthalyl amidase in 50 mM potassium phosphate buffer (pH 5.5-9.0) at 32° C. for 20 minutes. The reactions were stopped by the addition of 1 ml methanol. After removal of precipitate by centrifugation, an aliquot of the supernatant fraction (typically 30 μ) was monitored for the beta-lactam nucleus and phthalic acid by HPLC using a Zorbax C8 column (0.46×15 cm; MacMod Analytical Inc., Chadds Ford, Pa.). The two reaction products were eluted by a mobile phase constructed as continuous mixed gradients from (a) 1% ACN (acetonitrile)/0.2% TFA (trifluoroacetic acid) and (b) 80% ACN/0.2% TFA as follows: 1) 0% (b), 3 min; 2) 0-50% (b), 0.5 min; 3) 50-100% (b), 3 min; 4) 100% (b), 2.5 min; 5) 100-0% (b), 0.1 min; and 6) 0% (b), 5 min. At a flow rate of 1.5 ml/min, retention times of the beta-lactam nucleus and phthalic acid, as measured at 254 nm, were 2.3 and 7.2 min, respectively.

phthalyl amidase [5] = molecular target: T2, phthalyl amidase; experiment: Optimum salt concentration; type: biochemical; details: 32° C., substrate III
Method: Test reactions were carried out similar to Example 6 except that buffer concentrations ranging from 10 to 200 mM at 32° C. were examined. All other conditions and analyses were the same.

phthalyl amidase [6] = molecular target: T2, phthalyl amidase; experiment: Stability of phthalyl amidase (ionic strength, pH, temperature); type: physicochemical
Method: The stability of phthalyl amidase at pH values ranging from 6-9 was determined as described in Example 5 at 30° C. in both 20 and 200 mM potassium phosphate buffer. […] In 200 mM buffer, the enzyme retained at least 80% of its activity for 100 hours irrespective of the pH of the incubating medium.
The phthalyl amidase enzyme was also tested for stability at varying temperatures. The enzyme was incubated at pH 8.2 in the temperature range of 4°-50° C. for 48 hours in 50 and 200 mM phosphate buffer. […] In 200 mM buffer, 80% of the enzyme activity was retained in temperatures up to 35° C. and 30% of the enzyme activity was retained after 48 hours incubation at 40° C.

With `O=C(O)c1ccccc1C(=O)N[C@H](C(=O)O)c1ccccc1` [Compound XXX] the “substrate selectivity (in words)” value (phthalyl amidase [1]) was “poor substrates”, the “Relative Activity” value (phthalyl amidase [1]) was 1.3 and the “substrate selectivity (in words)” value (phthalyl amidase [1]; listed as L isomer) was “extremely poor substrate”.

With `O=C(Nc1ccccc1)c1ccccc1S(=O)(=O)O` [XXXII] the “substrate selectivity (in words)” value (phthalyl amidase [1]) was “poor substrates” and the “Relative Activity” value (phthalyl amidase [1]) was 0.0.

`O=C(O)c1ccccc1C(=O)O` [PAA, phthalate] showed a Units/g cells (Xanthobacter agilis; inducer addition 1 mg/ml) of 3.9 Units/g cells, a Total units/mg protein (Xanthobacter agilis; inducer addition 1 mg/ml) of 1.4 µmol/min/mg and a Units/g cells (Xanthobacter agilis; inducer addition 2 mg/ml) of 9.3 Units/g cells. For the same molecule, the Total units/mg protein (Xanthobacter agilis; inducer addition 2 mg/ml) was 4.3 µmol/min/mg, the Units/g cells (Xanthobacter agilis; inducer addition 5 mg/ml) was 5.5 Units/g cells and the Cell weight (Xanthobacter agilis; inducer addition 5 mg/ml) was 0.7 g/50 ml. The Total units/mg protein (Xanthobacter agilis; inducer addition 5 mg/ml) was 3.7 µmol/min/mg, the Units/g cells (Xanthobacter agilis; inducer addition 10 mg/ml) was 19.8 Units/g cells and the Cell weight (Xanthobacter agilis; inducer addition 10 mg/ml) was 0.6 g/50 ml. For the same molecule, the Total units/mg protein (Xanthobacter agilis; inducer addition 10 mg/ml) was 12.0 µmol/min/mg.

`O=C(O)c1ccccc1C(=O)Nc1ccccc1` [Compound XXXI] was tested, and the “substrate selectivity (in words)” value (phthalyl amidase [1]) was “twice” and the “Relative Activity” value (phthalyl amidase [1]) was 200.

B1: phthalyl amidase (mature enzyme, purified from Xanthobacter agilis) (enzyme)
chain: QAPSVHQHVAFTEEIGDLPDGSSYMIRVPENWNGVLIRDLDLVSGTSNSNAARYETMLKEGFAVAGTARHPLRQWQYDPAHEIENLNHVLDTFEENYGSPERVIQYGCSGGAHVSLAVAEDFSDRVDGSVALAAHTPVWIMNSFLDGWFSLQSLIGEYYVEAGHGPLSDLAITKLPNDGSSNSSGHGMEGDLPAAWRNAFTAANATPEGRARMALAFALGQWSPWLADNTPQPDLDDPEAIADSVYESAMRLAGSPGGEARIMFENAARGQQLSWNDDIDYADFWENSNPAMKSAVQELYDTAGLDLQSDIETVNSQPRIEASQYALDYWNTPGRNVIGDPEVPVLRLHMIGDYQIPYSLVQGYSDLISENNNDDLYRTAFVQSTGHCNFTAAESSAAIEVMMQRLDTGEWPSTEPDDLNAIAEASNTGTEARFMALDGWEIPEYNRTWKPE
modifications: N-terminus blocked (attempts to sequence the N-terminus of the purified enzyme failed)
Work on B1 yielded a Relative Activity (hydrolysis of the substrate by HPLC) (relative activity (compound III = 100.0)) [2] of 118.

B2: phthalyl amidase: enzyme from Xanthobacter agilis that removes the phthalyl moiety from phthalyl-containing amides (protein)
chain: B1 chain
B2 was tested, and the “enzyme activity below 10° C. and above 50° C. (in words)” value (phthalyl amidase [3]) was “Little enzyme activity”, the “temperature of maximum reaction rate” value (phthalyl amidase [3]) was 34 °C and the “Specific Activity” value (phthalyl amidase [4]; pH 7.0, substrate III 0.1 mM) was 125.4 μmol/min/μmol enzyme. The “Specific Activity” value (phthalyl amidase [4]; pH 7.2, substrate III 0.1 mM) was 130.4 μmol/min/μmol enzyme, the “Specific Activity” value (phthalyl amidase [4]; pH 7.4, substrate III 0.1 mM) was 155.2 μmol/min/μmol enzyme and the “Specific Activity” value (phthalyl amidase [4]; pH 7.6, substrate III 0.1 mM) was 172.5 μmol/min/μmol enzyme. For the same molecule, the “Specific Activity” value (phthalyl amidase [4]; pH 7.8, substrate III 0.1 mM) was 184.2 μmol/min/μmol enzyme, the “Specific Activity” value (phthalyl amidase [4]; pH 8.0, substrate III 0.1 mM) was 195.3 μmol/min/μmol enzyme and the “Specific Activity” value (phthalyl amidase [4]; pH 8.2, substrate III 0.1 mM) was 201.2 μmol/min/μmol enzyme. The “Specific Activity” value (phthalyl amidase [4]; pH 8.4, substrate III 0.1 mM) was 208.0 μmol/min/μmol enzyme, the “Specific Activity” value (phthalyl amidase [4]; pH 8.6, substrate III 0.1 mM) was 181.7 μmol/min/μmol enzyme and the “Specific Activity” value (phthalyl amidase [4]; pH 8.8, substrate III 0.1 mM) was 185.1 μmol/min/μmol enzyme. The “Specific Activity” value (phthalyl amidase [4]; pH 9.0, substrate III 0.1 mM) was 33.1 μmol/min/μmol enzyme, the “Specific Activity” value (phthalyl amidase [5]; K Phosphate buffer 10 mM) was 148 μmol/min/μmol enzyme and the “Specific Activity” value (phthalyl amidase [5]; K Phosphate buffer 50 mM) was 300 μmol/min/μmol enzyme. The “Specific Activity” value (phthalyl amidase [5]; K Phosphate buffer 100 mM) was 350 μmol/min/μmol enzyme, the “Specific Activity” value (phthalyl amidase [5]; K Phosphate buffer 200 mM) was 360 μmol/min/μmol enzyme and the “Specific Activity” value (phthalyl amidase [5]; NH4 Acetate buffer 10 mM) was 25 μmol/min/μmol enzyme. The “Specific Activity” value (phthalyl amidase [5]; NH4 Acetate buffer 50 mM) was 50 μmol/min/μmol enzyme, the “Specific Activity” value (phthalyl amidase [5]; NH4 Acetate buffer 100 mM) was 75 μmol/min/μmol enzyme and the “Specific Activity” value (phthalyl amidase [5]; NH4 Acetate buffer 200 mM) was 100 μmol/min/μmol enzyme. The “Specific Activity” value (phthalyl amidase [5]; Tris-HCl buffer 10 mM) was 73 μmol/min/μmol enzyme, the “Specific Activity” value (phthalyl amidase [5]; Tris-HCl buffer 50 mM) was 230 μmol/min/μmol enzyme and the “Specific Activity” value (phthalyl amidase [5]; Tris-HCl buffer 100 mM) was 275 μmol/min/μmol enzyme. For the same molecule, the “Specific Activity” value (phthalyl amidase [5]; Tris-HCl buffer 200 mM) was 300 μmol/min/μmol enzyme, the “Optimum ionic strength for stability” value (phthalyl amidase [6]) was ≥ 200 mM and the “optimum stability pH” value (phthalyl amidase [6]) was 8.0±0.4. The “pH range in which the enzyme is stable” value (phthalyl amidase [6]) was 6-9, the “time within which all enzyme activity was lost” value (phthalyl amidase [6]; 20 mM potassium phosphate buffer, any pH 6-9, 30° C.) was ≤ 2 h and the “time within which all enzyme activity was lost” value (phthalyl amidase [6]; 50 mM phosphate buffer, pH 8.2, incubation temperature above 40° C.) was ≤ 48 h. For the same molecule, the enzyme activity retained (phthalyl amidase [6]; 50 mM phosphate buffer, pH 8.2, temperatures below 25° C., 48 hours) was 90%, the enzyme activity retained (phthalyl amidase [6]; 200 mM phosphate buffer, pH 8.2, 40° C., 48 hours) was 30% and the enzyme activity retained (phthalyl amidase [6]; 200 mM potassium phosphate buffer, pH 6-9, 30° C., 100 hours) was “at least 80%”. The “temperature up to which good activity is retained” value (phthalyl amidase [6]; high salt (200 mM)) was “up to 40 °C” and the “temperature up to which good activity is retained” value (phthalyl amidase [6]; low salt (50 mM)) was “up to 30 °C”.
